Laboratory results reported in patent US20230190943A1, “ALGINIC ACID DERIVATIVE BONDED TO NONSTEROIDAL ANTI-INFLAMMATORY COMPOUND” (MOCHIDA PHARMACEUTICAL CO., LTD., priority 2018, published 2023).

Key:
[1] = Release test of free diclofenac, felbinac, ketoprofen or naproxen in sodium phosphate buffer (Example 23); format: physicochemical
Procedure: (§1) (set temperature of air conditioner). After confirming that no gel was formed, this solution was dispensed. Immediately after the dissolution, the amount of free diclofenac present in each solution was measured by LC-MS/MS as an initial state (day 0 of storage). Also, the other dispensed solutions were incubated at 37° C. for 1, 3, and 7 days, and then the amount of free diclofenac was measured. […] The MS conditions are as follows. • Ionization mode: ESI-negative • Ion source temperature: 300 degrees • Capillary voltage: -4000 V

[2] = rabbit, in vivo
Procedure: For each test substance, 4 rabbits were used, the whole body was fixed with a towel under no anesthesia, the area around the left knee j oint was wiped with alcohol, and then 0.1 mL/kg of each of the above test substances was administered into the j oint cavity from the outside of the rabbit knee using a Terumo 1 mL syringe equipped with a 26 G injection needle (manufactured by Terumo).
Rabbits were exsanguinated and killed under combined anesthesia by intramuscular administration of ketamine hydrochloride and xylazine. The joint capsule was incised just below the patella to expose the knee joint cavity, and the inside of the joint cavity was washed with 2 mL of physiological saline using a catheter with a Surflo indwelling needle 20 G, and the synovial fluid mixed with physiological saline was collected. The amount of DF in the recovered synovial fluid was measured by the following procedure.
The synovial tissue was separated and collected from the knee joint after collecting the synovial fluid in (2) above. The collected synovial tissue was washed with physiological saline to remove the attached synovial fluid. After removing the patella, the synovial tissue was placed in a tube, and the tissue was cut into small pieces with scissors. […] The same extraction operation as in (2) above was performed, and the amount of free diclofenac was measured using LC-MS/MS.

[3] = Release test of free diclofenac from conjugates in 20 mM sodium phosphate buffer, 37°C (Example 11); format: physicochemical; conditions: for Release Rate in Release Test at pH 5.3: pH 5.3, 37°C; for Release Rate in Release Test at pH 5.3 / Release Rate in Release Test at pH 7.0: free diclofenac; for Release Rate in Release Test at pH 7.0: pH 7.0, 37°C
Procedure: as §1

[4] = tested on: Rat 1% Silver Nitrate-Induced Pain Model; assay: Intra-articular administration in rat 1% silver nitrate-induced pain model, gait pain score (Example 24); format: in vivo; conditions: for average pain score: scale 0-3, 0.1 mL/kg into left hindlimb knee joint
Procedure: Rats (Crj: SD system (SPF), male, 6 weeks of age) were anesthetized, and a 1% silver nitrate solution was administered into the left hindlimb knee joint cavity at a dose of 50 µL/joint.
The gait state of the rats on the day after the model was created was evaluated by scoring. The rats were divided into groups based on the obtained scores, and under inhalation anesthesia with isoflurane, each test substance was administered at 0.1 mL/kg into the rat left hindlimb knee joint (n = 8).
The gait score was given once a day for 5 days from the day on which test substance was administrated. Note that, as the score on the first day, the score before administration (grouping) was used. Under the blind, the gait state of each group was visually observed using the following pain score table based on the gait state.
The results are shown by the average pain score on Table 16. • 0: Normal • 1: mild claudication with lifting the foot • 2: severe claudication with completely closing the toe • 3: walking on three legs

[5] = pH 5.3, day 1, free drug (diclofenac, felbinac, ketoprofen or naproxen)
[6] = pH 5.3, day 3, free drug (diclofenac, felbinac, ketoprofen or naproxen)
[7] = pH 5.3, day 7, free drug (diclofenac, felbinac, ketoprofen or naproxen)
[8] = pH 7.0, day 1, free drug (diclofenac, felbinac, ketoprofen or naproxen)
[9] = pH 7.0, day 3, free drug (diclofenac, felbinac, ketoprofen or naproxen)
[10] = pH 7.0, day 7, free drug (diclofenac, felbinac, ketoprofen or naproxen)
[11] = Day 1 (score before administration, grouping)

Molecule: Diclofenac-(2-Amino-1-(4-Hydroxypiperidin-1-Yl)Ethan-1-One)-Alginic Acid Derivative [Compound 63a]
- Release Rate in Release Test at pH 5.3 [1, 5]: 0.0%
- Release Rate in Release Test at pH 5.3 [1, 6]: 0.2%
- Release Rate in Release Test at pH 5.3 [1, 7]: 0.2%
- Release Rate in Release Test at pH 7.0 [1, 8]: 0.3%
- Release Rate in Release Test at pH 7.0 [1, 9]: 0.8%
- Release Rate in Release Test at pH 7.0 [1, 10]: 2.2%
- DF retained in the synovial tissue continuously until ... after administration [2]: ≥ 84 days

Molecule: Diclofenac-(2-Aminoethanol)-Alginic Acid Derivative [Compound 5a]
- Release Rate in Release Test at pH 5.3 ([3]; Day 1, 0.1% w/w conjugate): 0.0%
- Release Rate in Release Test at pH 5.3 ([3]; Day 3, 0.1% w/w conjugate): 0.1%
- Release Rate in Release Test at pH 5.3 ([3]; Day 7, 0.1% w/w conjugate): 0.2%
- Release Rate in Release Test at pH 7.0 ([3]; Day 1, 0.1% w/w conjugate): 0.2%
- Release Rate in Release Test at pH 7.0 ([3]; Day 3, 0.1% w/w conjugate): 2.3%
- Release Rate in Release Test at pH 7.0 ([3]; Day 7, 0.1% w/w conjugate): 4.1%

Molecule: Diclofenac-(2-Amino-N-(2-Hydroxyethyl)Acetamide)-Alginic Acid Derivative [Compound 53b]
- Release Rate in Release Test at pH 5.3 [1, 5]: 0.6%
- Release Rate in Release Test at pH 5.3 [1, 6]: 0.8%
- Release Rate in Release Test at pH 5.3 [1, 7]: 1.0%
- Release Rate in Release Test at pH 7.0 [1, 8]: 0.9%
- Release Rate in Release Test at pH 7.0 [1, 9]: 2.3%
- Release Rate in Release Test at pH 7.0 [1, 10]: 6.4%
- average pain score [4, 11]: 2.5
- average pain score ([4]; Day 2): 1.0
- average pain score ([4]; Day 3): 0.9
- average pain score ([4]; Day 4): 0.5
- average pain score ([4]; Day 5): 0.4
- degree of pain relief (recovery from pain) ([4]; compared with diclofenac, alginic acid and diclofenac + alginic acid administration groups): faster
- DF retained in the synovial tissue continuously until ... after administration [2]: ≥ 84 days

Molecule: O=C([O-])Cc1ccccc1Nc1c(Cl)cccc1Cl.[Na+] [DF, Diclofenac Na, reference compound]
- average pain score [4, 11]: 2.5
- average pain score ([4]; Day 2): 1.9
- average pain score ([4]; Day 3): 1.9
- average pain score ([4]; Day 4): 1.0
- average pain score ([4]; Day 5): 0.8

Molecule: Diclofenac-(Tyramine)-Alginic Acid Derivative [Compound 32]
- Release Rate in Release Test at pH 5.3 ([3]; Day 1, 0.1% w/w conjugate): 0.0%
- Release Rate in Release Test at pH 5.3 ([3]; Day 3, 0.1% w/w conjugate): 1.5%
- Release Rate in Release Test at pH 5.3 ([3]; Day 7, 0.1% w/w conjugate): 7.6%
- Release Rate in Release Test at pH 7.0 ([3]; Day 1, 0.1% w/w conjugate): 0.0%
- Release Rate in Release Test at pH 7.0 ([3]; Day 3, 0.1% w/w conjugate): 5.7%
- Release Rate in Release Test at pH 7.0 ([3]; Day 7, 0.1% w/w conjugate): 15.2%

Molecule: Diclofenac-((4-(Aminomethyl)Phenyl)Methanol)-Alginic Acid Derivative [Compound 28]
- Release Rate in Release Test at pH 5.3 ([3]; Day 1, 0.1% w/w conjugate): 0.0%
- Release Rate in Release Test at pH 5.3 ([3]; Day 3, 0.1% w/w conjugate): 0.1%
- Release Rate in Release Test at pH 5.3 ([3]; Day 7, 0.1% w/w conjugate): 0.3%
- Release Rate in Release Test at pH 7.0 ([3]; Day 1, 0.1% w/w conjugate): 0.1%
- Release Rate in Release Test at pH 7.0 ([3]; Day 3, 0.1% w/w conjugate): 1.2%
- Release Rate in Release Test at pH 7.0 ([3]; Day 7, 0.1% w/w conjugate): 4.0%

Molecule: Diclofenac-(2-Aminoethanol)-Alginic Acid Derivative [Compound 5c]
- Release Rate in Release Test at pH 5.3 ([3]; Day 1, 0.1% w/w conjugate): 0.0%
- Release Rate in Release Test at pH 5.3 ([3]; Day 3, 0.1% w/w conjugate): 0.1%
- Release Rate in Release Test at pH 5.3 ([3]; Day 7, 0.1% w/w conjugate): 0.4%
- Release behaviour in the release test at pH 7.0 (in words) [3]: stably released
- Release Rate in Release Test at pH 7.0 ([3]; Day 1, 0.1% w/w conjugate): 0.3%
- Release Rate in Release Test at pH 7.0 ([3]; Day 3, 0.1% w/w conjugate): 2.5%
- Release Rate in Release Test at pH 7.0 ([3]; Day 7, 0.1% w/w conjugate): 5.5%

Molecule: Diclofenac-(2-Aminoethoxyethanol)-Alginic Acid Derivative [Compound 14]
- Release Rate in Release Test at pH 5.3 ([3]; Day 1, 0.1% w/w conjugate): 0.0%
- Release Rate in Release Test at pH 5.3 ([3]; Day 3, 0.1% w/w conjugate): 0.0%
- Release Rate in Release Test at pH 5.3 ([3]; Day 7, 0.1% w/w conjugate): 0.0%
- Release Rate in Release Test at pH 7.0 ([3]; Day 1, 0.1% w/w conjugate): 0.0%
- Release Rate in Release Test at pH 7.0 ([3]; Day 3, 0.1% w/w conjugate): 0.0%
- Release Rate in Release Test at pH 7.0 ([3]; Day 7, 0.1% w/w conjugate): 0.0%

Molecule: Diclofenac-(N-(Aminoethyl)-2-Hydroxyacetamide)-Alginic Acid Derivative [Compound 42]
- Release Rate in Release Test at pH 5.3 ([3]; Day 1, 0.1% w/w conjugate): 0.0%
- Release Rate in Release Test at pH 5.3 ([3]; Day 3, 0.1% w/w conjugate): 0.5%
- Release Rate in Release Test at pH 5.3 ([3]; Day 7, 0.1% w/w conjugate): 3.3%
- Release behaviour in the release test at pH 7.0 (in words) [3]: stably released
- Release Rate in Release Test at pH 7.0 ([3]; Day 1, 0.1% w/w conjugate): 1.8%
- Release Rate in Release Test at pH 7.0 ([3]; Day 3, 0.1% w/w conjugate): 10.2%
- Release Rate in Release Test at pH 7.0 ([3]; Day 7, 0.1% w/w conjugate): 21.0%

Molecule: Diclofenac-(Serine Ethyl Ester)-Alginic Acid Derivative [Compound 19]
- Release Rate in Release Test at pH 5.3 ([3]; Day 1, 0.1% w/w conjugate): 0.0%
- Release Rate in Release Test at pH 5.3 ([3]; Day 3, 0.1% w/w conjugate): 0.0%
- Release Rate in Release Test at pH 5.3 ([3]; Day 7, 0.1% w/w conjugate): 0.0%
- Release Rate in Release Test at pH 7.0 ([3]; Day 1, 0.1% w/w conjugate): 0.0%
- Release Rate in Release Test at pH 7.0 ([3]; Day 3, 0.1% w/w conjugate): 0.8%
- Release Rate in Release Test at pH 7.0 ([3]; Day 7, 0.1% w/w conjugate): 12.3%
